# Results reported in publication PMC8840930, “PSTPIP1-LYP phosphatase interaction: structural basis and implications for autoinflammatory disorders” (Cellular and Molecular Life Sciences: CMLS, 2022).
# Where “and” joins values, the source holds several entries; their conditions need not be identical. Identical values can stand only once. Ends that are not written are not given here.
# B1: F-BAR domain of PSTPIP1 (residues 1-289), wild type (domain or fragment)
# chain: not shown
# notes: PSTPIP1, human, UniProt O43586, region 1-289 (F-BAR domain); modified pET15b with TEV site; homodimer in the crystals; also called wild type F-BAR; F-BAR of PSTPIP1; not shown: poly-His, N-terminal, cleaved
# B2: fluorescein-LYP-CTH (peptide)
# peptide: fluorescein-GFANRFSKPKGPRNPPPTWNI
# notes: LYP (PTPN22), human, UniProt Q9Y2R2-1, region 787-807 (C-terminal homology segment, CTH); also called fluorescein-labeled LYP-CTH; synthetic peptide of the CTH of LYP (residues 787-807) labeled with fluorescein; source: synthetic peptide (custom synthesized, Thermo Scientific, Germany)
# What was measured:
# [1] = target: the molecule itself; assay: crystal structure; F-BAR domain of PSTPIP1 (1-289) alone, G258A and wild type; space group P212121, two molecules in the asymmetric unit
# fluorescein-LYP-CTH [2] = target: B2; assay: fluorescence polarisation; fluorescence anisotropy under saturation conditions; fluorescein-LYP-CTH at 1 µM titrated with the F-BAR of PSTPIP1; stoichiometry from the intersection of asymptotes; settings: both partners purified
# [3] = target: B1; assay: fluorescence polarisation; fluorescence anisotropy; fluorescein-LYP-CTH (2 nM) titrated with the F-BAR of PSTPIP1; 20 mM Tris/HCl pH 7.5, 150 mM NaCl, 0.1 mg/mL BSA; 25 °C; apparent kd, one-to-one binding model; settings: both partners purified
# [4] = target: T1, F-BAR domain of PSTPIP1 (residues 1-289), A230T (human, UniProt O43586 1-289, A230T); assay: as above; settings: both partners purified
# T1 construct: PSTPIP1, human, UniProt O43586, region 1-289 (F-BAR domain), patient mutation A230T; also called A230T mutant; not shown: poly-His, N-terminal, cleaved
# T1 sequence (O43586 1-289 A230T): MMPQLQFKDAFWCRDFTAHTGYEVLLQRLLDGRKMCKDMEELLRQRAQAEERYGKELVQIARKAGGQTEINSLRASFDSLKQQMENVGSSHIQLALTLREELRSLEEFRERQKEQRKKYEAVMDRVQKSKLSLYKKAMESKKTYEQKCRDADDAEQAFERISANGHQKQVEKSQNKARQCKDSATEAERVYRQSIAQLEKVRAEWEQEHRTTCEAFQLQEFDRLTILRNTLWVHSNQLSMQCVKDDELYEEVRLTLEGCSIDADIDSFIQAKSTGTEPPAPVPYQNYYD
# fluorescein-LYP-CTH [5] = target: B2; assay: as above; settings: both partners purified
# [6] = target: T2, F-BAR domain of PSTPIP1 (residues 1-289), wild type (human, UniProt O43586 1-289); assay: ITC; unlabeled LYP-CTH peptide in the syringe, F-BAR of PSTPIP1 in the cell; 25 °C; 20 mM sodium phosphate (pH 7.5), 150 mM NaCl, 5% (v/v) DMSO; single set of identical sites model; three single experiments; settings: both partners purified
# T2 construct: His tag cleaved with TEV protease; forms the F-BAR dimer in the crystal; also called PSTPIP1 F-BAR (1-289); F-BAR of PSTPIP1; not shown: poly-His, N-terminal, cleaved
# [7] = target: B1; assay: ITC; 25 °C; F-BAR of PSTPIP1 in the cell (26.2-30.6 µM), unlabeled LYP-CTH peptide in the syringe (146.8-155.2 µM); 20 mM sodium phosphate pH 7.5, 150 mM NaCl, 5% DMSO; single set of identical sites model; settings: both partners purified
binder,measurement,setting,value
"F-BAR domain of PSTPIP1 (residues 1-289), G258A (domain or fragment, PSTPIP1, human, UniProt O43586, residues 1-289 (F-BAR domain), patient mutation G258A; homodimer in the crystal; also called G258A mutant; PSTPIP1-G258A; not shown: poly-His, N-terminal, cleaved) not shown",stoichiometry N,[1],2
B1,binding result,[1],binds
same,stoichiometry N,fluorescein-LYP-CTH [2],2 molecules of PSTPIP1 for each LYP-CTH
B2,Kd,[3],~20 nM
same,Kd,[4],~20 nM
"F-BAR domain of PSTPIP1 (residues 1-289), W232A (domain or fragment, PSTPIP1, human, UniProt O43586, region 1-289 (F-BAR domain), W232A; not shown: poly-His, N-terminal, cleaved) not shown",fold lower binding affinity than the wild type F-BAR,fluorescein-LYP-CTH [5],~60 fold
"F-BAR domain of PSTPIP1 (residues 1-289), E250Q (domain or fragment, PSTPIP1, human, UniProt O43586, region 1-289 (F-BAR domain), patient mutation E250Q; not shown: poly-His, N-terminal, cleaved) not shown",fold lower binding affinity than the wild type F-BAR,fluorescein-LYP-CTH [5],~60 fold
"GFANRFSKPKGPRNPPPTWNI (lymphoid phosphatase LYP (PTPN22), human, C-terminal homology segment, region 787-807; also called LYP-CTH; source: synthetic peptide (Genosphere Biotechnologies)) [unlabeled peptide of the CTH of LYP (residues 787-807)]",Kd,[6],263 nM and 229 nM and 267 nM
same,stoichiometry N,[6],0.5 and 0.49 and 0.46
"GFANRFSKPKGPRNPPPTWNI (LYP (PTPN22), human, UniProt Q9Y2R2-1, region 787-807 (C-terminal homology segment, CTH); also called unlabeled LYP-CTH; peptide of the CTH of LYP; source: synthetic peptide (custom synthesized, Genosphere Biotechnologies, France)) [LYP-CTH peptide, unlabeled (residues 787-807)]",Kd,[7],253 nM
same,stoichiometry N,[7],0.48 molecules of LYP-CTH for each PSTPIP1
